# Assay results taken from US20140179593A1 (published 2014).
# Positions of bridges follow the written chain, without caps; N, C: chain ends. Non-standard residues stand in square brackets, D forms with d. *: point of attachment. S5 = C=CCCC[C@](C)(N)C(=O)O; For = O=C*
# T1: hDcn4^P (PONY domain of human DCUN1D4) (Homo sapiens, UniProt Q92564 102-292)
# T1 sequence: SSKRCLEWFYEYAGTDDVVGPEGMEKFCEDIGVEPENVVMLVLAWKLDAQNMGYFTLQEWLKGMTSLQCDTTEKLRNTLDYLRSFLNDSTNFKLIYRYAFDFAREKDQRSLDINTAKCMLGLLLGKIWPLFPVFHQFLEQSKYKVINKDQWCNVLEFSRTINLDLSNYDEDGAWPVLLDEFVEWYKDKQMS
# T2: hDcn3^P (PONY domain of human DCUN1D3) (Homo sapiens, UniProt Q8IWE4 86-304)
# T2 sequence: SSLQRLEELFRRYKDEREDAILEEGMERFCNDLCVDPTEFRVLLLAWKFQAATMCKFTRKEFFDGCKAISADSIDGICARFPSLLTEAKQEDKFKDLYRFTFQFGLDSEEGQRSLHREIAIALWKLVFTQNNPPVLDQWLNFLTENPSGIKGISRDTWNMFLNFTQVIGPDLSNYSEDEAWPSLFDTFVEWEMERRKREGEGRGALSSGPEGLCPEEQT
# T3: hDcn5^P (PONY domain of human DCUN1D5) (Homo sapiens, UniProt Q9BTE7 47-237)
# T3 sequence: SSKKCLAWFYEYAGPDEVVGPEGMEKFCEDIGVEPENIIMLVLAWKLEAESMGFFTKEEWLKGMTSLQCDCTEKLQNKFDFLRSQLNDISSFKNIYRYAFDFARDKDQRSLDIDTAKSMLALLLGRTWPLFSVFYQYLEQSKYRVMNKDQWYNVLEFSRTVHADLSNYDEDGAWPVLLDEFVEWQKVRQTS
# T4: yDcn1^P (potentiating neddylation (PONY) domain of S. cerevisiae Dcn1) (Saccharomyces cerevisiae, UniProt Q12395 70-269)
# T4 construct: NEDD8 co-E3; Expressed in E. coli
# T4 sequence: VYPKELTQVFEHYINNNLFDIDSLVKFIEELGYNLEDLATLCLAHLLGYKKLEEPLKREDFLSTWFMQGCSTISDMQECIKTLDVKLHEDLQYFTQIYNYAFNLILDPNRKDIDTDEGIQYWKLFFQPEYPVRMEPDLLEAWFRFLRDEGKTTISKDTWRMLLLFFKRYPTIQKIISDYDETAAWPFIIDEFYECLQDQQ
# T5: hE1 for Nedd8 (APPBP1-UBA3, NAE1-UBA3) (Homo sapiens, UniProt Q13564 18-534; Q8TBC4 22-463, limits assumed)
# T5 construct: Heterodimer of NAE1 and UBA3, expressed in E. coli as described previously
# T5 sequence 1: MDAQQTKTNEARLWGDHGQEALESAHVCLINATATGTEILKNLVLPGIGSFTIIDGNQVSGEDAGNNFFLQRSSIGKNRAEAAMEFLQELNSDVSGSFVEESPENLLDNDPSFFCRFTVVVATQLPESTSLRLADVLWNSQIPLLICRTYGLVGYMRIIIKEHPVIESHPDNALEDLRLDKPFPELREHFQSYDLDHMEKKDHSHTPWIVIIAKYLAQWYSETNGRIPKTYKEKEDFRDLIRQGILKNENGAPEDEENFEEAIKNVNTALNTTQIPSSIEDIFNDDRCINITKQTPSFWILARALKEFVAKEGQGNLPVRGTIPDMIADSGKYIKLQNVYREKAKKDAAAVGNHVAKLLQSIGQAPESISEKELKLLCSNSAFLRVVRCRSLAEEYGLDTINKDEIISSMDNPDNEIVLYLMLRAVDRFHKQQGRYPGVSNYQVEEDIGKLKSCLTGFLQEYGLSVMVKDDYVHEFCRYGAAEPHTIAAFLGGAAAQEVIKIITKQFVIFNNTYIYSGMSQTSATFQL
# T5 sequence 2: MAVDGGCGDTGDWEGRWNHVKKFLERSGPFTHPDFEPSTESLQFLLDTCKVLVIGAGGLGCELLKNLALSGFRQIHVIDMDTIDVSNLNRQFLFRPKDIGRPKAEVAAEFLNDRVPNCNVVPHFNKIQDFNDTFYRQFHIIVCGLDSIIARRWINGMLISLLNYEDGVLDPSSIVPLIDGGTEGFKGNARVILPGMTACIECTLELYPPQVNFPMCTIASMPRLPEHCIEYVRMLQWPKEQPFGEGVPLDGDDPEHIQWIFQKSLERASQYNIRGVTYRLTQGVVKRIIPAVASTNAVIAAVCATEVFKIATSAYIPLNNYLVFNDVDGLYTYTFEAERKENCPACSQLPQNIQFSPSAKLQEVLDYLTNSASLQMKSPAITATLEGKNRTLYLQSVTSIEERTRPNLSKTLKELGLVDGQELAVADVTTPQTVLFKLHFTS
# Tests used:
# [1] = target: T1, hDcn4^P (PONY domain of human DCUN1D4); experiment: ITC, two values in the cell, second value
# Method: (§1) Protein samples were buffer matched by desalting over a NAP-5 column (GE Healthcare) into 50 mM Hepes, 125 mM NaCl, 1 mM BME, pH 7.0 (ITC buffer). Peptides were dissolved by weight to a final concentration of 10 mM in ITC buffer and diluted further in ITC buffer as required for the experiments. […] The peptide ligands (4 mM) were constantly injected (1.5 μl). The interval time between each injection was 3 minutes and the duration of each injection was 3 seconds. […] Peptide ligands (250 μM) were constantly injected (2.5 μl). The interval time between each injection was three minutes and the duration of each injection was 5 seconds. […] The interval time between each injection was 3 minutes and the duration of each injection was 5 seconds. Obtained spectra were evaluated using Origin (V 7.0) to determine heats of binding and Kd values.
# [2] = target: T1, hDcn4^P (PONY domain of human DCUN1D4); experiment: ITC, two values in the cell, first value
# Method: as §1
# [3] = target: T2, hDcn3^P (PONY domain of human DCUN1D3); experiment: ITC, peptide titrated into Dcn PONY domain
# [4] = target: hDcn2^P (PONY domain of human DCUN1D2) (Homo sapiens, UniProt Q6PH85 62-259); experiment: ITC, peptide titrated into Dcn PONY domain
# [5] = target: T3, hDcn5^P (PONY domain of human DCUN1D5); experiment: ITC, peptide titrated into Dcn PONY domain
# [6] = target: T6, hDcn1^P (potentiating neddylation / PONY domain of human Dcn1, DCUN1D1) (Homo sapiens, UniProt Q96GG9 62-259); experiment: ITC, peptide titrated into Dcn PONY domain
# T6 construct: also called DCUN1D1^P; SCCRO PONY domain
# [7] = target: T7, hDcn1^P (residues 62 to the C-terminal residue 259 of hDcn1, aka SCCRO or DCUN1D1) (Homo sapiens, UniProt Q96GG9 62-259); experiment: crystal structure
# T7 construct: Expressed as a GST fusion in E. coli; GST released by TEV protease; also called DCUN1D1^P; PONY domain of hDcn1
# Method: The crystals grew as multiple clusters. Single crystals of the complex were obtained by streak-seeding into 17% PEG1500, 0.1 M MIB pH 4.0. The crystals were soaked in step gradients for 1-5 minutes, with sequential soaks containing well solution supplemented with 10%, 20%, and 30% ethylene glycol prior to flash-freezing in liquid nitrogen. Reflection data were collected at beamline 8.2.2 at the Advanced Light Source.
# [8] = target: T4, yDcn1^P (potentiating neddylation …); experiment: ITC, peptide titrated into Dcn1^P; against the unacetylated peptide
# Method: (§2) To gain insights into mechanistic roles of Ubc12 N-terminal acetylation, isothermal titration calorimetry (ITC) was used to quantify interactions with peptides corresponding to the N-termini of yeast or human Ubc12.
# as §1
# [9] = target: T7, hDcn1^P (residues 62 to the C-terminal …); experiment: as above
# Method: as §2, §1
# [10] = target: T5, hE1 for Nedd8 (APPBP1-UBA3, NAE1-UBA3); experiment: not named in the sentence (ITC in Table 25)
# Method: (§3) Specifically, Phe5 and Gln9 were replaced with (S)-2-(4′-pentenyl) alanine and these side-chains were covalently linked to test the effect of “stapling” an acetylated Ubc12 peptide into a helix (Bird et al. (2008) Methods Enzymol 446:369-386).
# as §1
# [11] = target: T7, hDcn1^P (residues 62 to the C-terminal …); experiment: ITC; against Acetyl-hUbc12^1-12
# Method: as §3, §1
# [12] = target: T7, hDcn1^P (residues 62 to the C-terminal …); experiment: ITC; against Acetyl-hUbc12^1-26
# Method: The formylated peptides lack the methyl portion of an acetyl, but retain the amide and are uncharged.
# as §1
# [13] = target: T4, yDcn1^P (potentiating neddylation …); experiment: ITC; against Acetyl-yUbc12^1-24
# Method: as §1
# T7 sequence (Q96GG9 62-259): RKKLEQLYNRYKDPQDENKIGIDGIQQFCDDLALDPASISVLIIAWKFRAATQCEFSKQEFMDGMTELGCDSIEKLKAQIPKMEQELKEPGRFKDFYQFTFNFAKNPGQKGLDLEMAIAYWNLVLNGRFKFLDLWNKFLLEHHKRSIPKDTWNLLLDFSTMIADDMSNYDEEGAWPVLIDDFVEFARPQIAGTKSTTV
# Sequence of hDcn2^P (PONY domain of human DCUN1D2) (Q6PH85 62-259 limits assumed): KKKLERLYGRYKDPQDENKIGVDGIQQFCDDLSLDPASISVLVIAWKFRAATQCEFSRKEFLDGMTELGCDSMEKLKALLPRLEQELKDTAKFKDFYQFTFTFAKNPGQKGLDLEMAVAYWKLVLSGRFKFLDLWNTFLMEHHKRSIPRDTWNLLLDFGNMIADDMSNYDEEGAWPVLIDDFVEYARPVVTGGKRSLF
# T6 sequence (Q96GG9 62-259): as the sequence (Q96GG9 62-259) above
binder,measurement,setting,value
Ac-MLKLRQLQKKKQKENENSSSIQPN-NH2 (Synthetic peptide of the N-terminus of yeast Ubc12; also called Acetyl-yUbc12^1-24) [yUbc12^Ac1-24],Kd,[1],13000 nM
same,Kd,[2],1200 nM
same,Kd,[3],3400 nM
same,Kd,[4],204 nM
same,Kd,[5],2400 nM
same,Kd,[6],311 nM
Ac-MIKLFSLKQQKKEEE-NH2 (Peptide of the hCul1^WHB-hDcn1^P-Acetyl-hUbc12^1-15 crystal structure; also called N-terminally acetylated human Ubc12^1-15) [Acetyl-hUbc12^1-15],binding result,[7],binds
Ac-MLKLRQLQKKKQKENENSSSIQPN-NH2 (Synthetic peptide; also called yUbc12Ac1-24; N-terminally acetylated S. cerevisiae Ubc12^1-24) [Acetyl-yUbc12^1-24],increase in affinity by N-terminal acetylation,[8],~100 fold
Ac-MIKLFSLKQQKKEEESAGGTKGSSKK-NH2 (Synthetic peptide; also called hUbc12Ac1-26) [Acetyl-hUbc12^1-26],increase in affinity by N-terminal acetylation,[9],~100 fold
"Ac-MIKL[S5]SLK[S5]QKK-NH2 (staple 5-9, Printed Ac-MIKLXSLKXQKK-NH2, X = 2-(4-pentenyl)alanine; also called stapled helical peptide) [Acetyl-hUbc12^1-12(5:9Staple)]",binding result,[10],no binding
same,fold improvement of binding over the unstapled peptide,[11],14 fold
"For-MIKLFSLKQQKKEEESAGGTKGSSKK-NH2 (SMILES CC[C@H](C)[C@H](NC(=O)[C@H](CCSC)NC=O)C(=O)N[C@@H](CCCCN)C(=O)N[C@@H](CC(C)C)C(=O)N[C@@H](Cc1ccccc1)C(=O)N[C@@H](CO)C(=O)N[C@@H](CC(C)C)C(=O)N[C@@H](CCCCN)C(=O)N[C@@H](CCC(N)=O)C(=O)N[C@@H](CCC(N)=O)C(=O)N[C@@H](CCCCN)C(=O)N[C@@H](CCCCN)C(=O)N[C@@H](CCC(=O)O)C(=O)N[C@@H](CCC(=O)O)C(=O)N[C@@H](CCC(=O)O)C(=O)N[C@@H](CO)C(=O)N[C@@H](C)C(=O)NCC(=O)NCC(=O)N[C@H](C(=O)N[C@@H](CCCCN)C(=O)NCC(=O)N[C@@H](CO)C(=O)N[C@@H](CO)C(=O)N[C@@H](CCCCN)C(=O)N[C@@H](CCCCN)C(N)=O)[C@@H](C)O, Synthetic peptide; also called N-terminally formylated human Ubc12 peptide; hUbc12^Formyl-1-26) [Formyl-hUbc12^1-26]",fold change of Kd against the acetylated peptide,[12],~9 fold
"For-MLKLRQLQKKKQKENENSSSIQPN-NH2 (SMILES CC[C@H](C)[C@H](NC(=O)[C@H](CO)NC(=O)[C@H](CO)NC(=O)[C@H](CO)NC(=O)[C@H](CC(N)=O)NC(=O)[C@H](CCC(=O)O)NC(=O)[C@H](CC(N)=O)NC(=O)[C@H](CCC(=O)O)NC(=O)[C@H](CCCCN)NC(=O)[C@H](CCC(N)=O)NC(=O)[C@H](CCCCN)NC(=O)[C@H](CCCCN)NC(=O)[C@H](CCCCN)NC(=O)[C@H](CCC(N)=O)NC(=O)[C@H](CC(C)C)NC(=O)[C@H](CCC(N)=O)NC(=O)[C@H](CCCNC(=N)N)NC(=O)[C@H](CC(C)C)NC(=O)[C@H](CCCCN)NC(=O)[C@H](CC(C)C)NC(=O)[C@H](CCSC)NC=O)C(=O)N[C@@H](CCC(N)=O)C(=O)N1CCC[C@H]1C(=O)N[C@@H](CC(N)=O)C(N)=O, Synthetic peptide; also called N-terminally formylated yeast Ubc12 peptide) [Formyl-yUbc12^1-24]",fold change of Kd against the acetylated peptide,[13],~17 fold
